For data set [1], the target named is T1, GST-OsNAC15 (Oryza sativa, UniProt K9LKF1 1-301).
T1 sequence: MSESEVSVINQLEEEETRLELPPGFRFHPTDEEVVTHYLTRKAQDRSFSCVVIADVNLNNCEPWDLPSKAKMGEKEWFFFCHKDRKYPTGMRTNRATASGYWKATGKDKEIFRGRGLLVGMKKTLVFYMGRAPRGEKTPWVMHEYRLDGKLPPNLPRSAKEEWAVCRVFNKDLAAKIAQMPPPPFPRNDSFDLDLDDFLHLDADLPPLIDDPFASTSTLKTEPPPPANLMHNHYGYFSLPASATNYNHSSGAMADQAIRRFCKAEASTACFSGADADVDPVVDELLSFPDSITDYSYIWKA
Nature of the data set: EMSA; EMSA: 20 uL reaction, room temperature, 20 min; 6.5% polyacrylamide gel in 0.5x TBE, 1 h; buffer, salt and pH not stated (LightShift Chemiluminescent EMSA kit). The settings on record: protein: recombinant; tags: N-term GST (pGEX-4T1); chain copies: 2; label: biotin at 5' of F strand; biotin printed at 3' end of R strand; blunt. For orientation: Mobility shift assays separate free from complexed probe on a gel.

For data set [2], the target named is T1, GST-OsNAC15. Description: competition; 25-fold molar excess over labeled OsZIP10 probe; complex band weaker; EMSA: 20 uL reaction, room temperature, 20 min; 6.5% polyacrylamide gel in 0.5x TBE, 1 h; buffer, salt and pH not stated (LightShift Chemiluminescent EMSA kit). The settings on record: protein: recombinant; tags: N-term GST (pGEX-4T1); chain copies: 2; label: none; blunt.

B1: OsZIP10 probe (dsDNA)
DNA 1: TCGCGCCATGGTGTCGACACGGCCATCTCT
DNA 2: AGAGATGGCCGTGTCGACACCATGGCGCGA
Take B1: the binding result in data set [1] is listed as “binds”.

B2: OsZIP10 cold competitor (dsDNA)
DNA 1: B1 DNA 1
DNA 2: B1 DNA 2
Regarding B2, the binding result in data set [2] was “binds”.

For the origin of these results see PMC9569620, “OsNAC15 Regulates Tolerance to Zinc Deficiency and Cadmium by Binding to OsZIP7 and OsZIP10 in Rice”.
